Experiments:
[1] = target: Survivin-GB1Borealin f.l. complex (human, UniProt O15392;Q53HL2); assay: ITC
[2] = target: Survivin, non-tagged (human, UniProt O15392 1-142); assay: SEC
Sequence of Survivin, non-tagged (O15392 whole entry): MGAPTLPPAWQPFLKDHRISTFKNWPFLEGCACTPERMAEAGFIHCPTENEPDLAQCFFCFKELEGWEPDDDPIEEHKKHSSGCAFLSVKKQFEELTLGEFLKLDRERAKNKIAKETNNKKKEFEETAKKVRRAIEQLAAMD

Sequence of Survivin-GB1Borealin f.l. complex (O15392 whole entry, chain 1 of 2): as the sequence (O15392 whole entry) above
Sequence of Survivin-GB1Borealin f.l. complex (Q53HL2 whole entry, chain 2 of 2): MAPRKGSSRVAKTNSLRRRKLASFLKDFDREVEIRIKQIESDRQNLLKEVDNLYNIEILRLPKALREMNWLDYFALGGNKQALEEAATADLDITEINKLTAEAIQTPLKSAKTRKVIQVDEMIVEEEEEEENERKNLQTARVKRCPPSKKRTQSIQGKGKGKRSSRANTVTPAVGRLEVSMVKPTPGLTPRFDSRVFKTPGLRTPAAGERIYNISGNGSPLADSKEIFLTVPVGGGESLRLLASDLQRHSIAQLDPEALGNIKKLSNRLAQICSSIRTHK

Binder | Kd [1] [nM] | stoichiometry N [1] | binding result [2]
INCENP 1-69, His6-tagged (domain or fragment) MGTTAPGPIHLLELCDQKLMEFLCNMDNKDLVWLEEIQEEAERMFTREFSKEPELMPKTPSQKNRRKKR | 27 | ~0.75 | 
GB1Borealin 13-92 (domain or fragment) TNSLRRRKLASFLKDFDREVEIRIKQIESDRQNLLKEVDNLYNIEILRLPKALREMNWLDYFALGGNKQALEEAATADLD |  |  | binds

From paper PMC2746994 (Biochemistry, 2009)
